Laboratory results reported in patent US20230227790.

Target: component B (compB) protein (I53-50B)
Assay: SEC-HPLC after sub-surface pipette addition and orbital agitation overnight

B1: component A (compA) protein (I53-50A) fused to RSV antigen (protein)
chain: MEELFKKHKIVAVLRANSVEEAIEKAVAVFAGGVHLIEITFTVPDADTVIKALSVLKEKGAIIGAGTVTSVEQCRKAVESGAEFIVSPHLDEEISQFCKEKGVFYMPGVMTPTELVKAMKLGHTILKLFPGEVVGPQFVKAMKGPFPNVKFVPTGGVNLDNVCEWFKAGVLAVGVGSALVKGTPDEVREKAKAFVEKIRGCTE
B1 was tested, and the “VLP assembly peak (% by HPLC)” value was “formation of the VLP assembly (50%)”.
